According to the RNAGym collection of RNA variant scans (doi:10.1073/pnas.2313332121):

B1: TPR t1 (parent)
chain: GACCAAUCUGCCCUCAGAGCUCGAGAACAUCUUCGGAUGCAGAGGAGGCAGGCUUCGGUGGCGCGAUAGCGCCAACGUCCUCAACCUCCAAUGCAUCCCACCACAUGAUGAUGCCUGAAGAGCCUUGGUUUUUUG

Variants of: B1
Assay: polymerase ribozyme fitness, log enrichment relative to wild type (log ratio); higher = more active; in vitro selection for triplet polymerase activity
Procedure, shortened: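 Input and output libraries were sequenced on Illumina after a single in vitro selection round, run in triplicate on PCR-built, transcribed mutant libraries of each subunit of a heterodimeric triplet polymerase ribozyme. Selection annealed libraries to a biotinylated primer, the partner subunit and triplets, incubated them frozen at −7 °C, then gel-excised extended constructs for streptavidin-bead capture and RT-PCR. Genotypes with ≥10 input reads and ≥1 read per output were kept. Fitness is the logarithm, taken in base 2, of genotype enrichment divided by wild-type enrichment, using inverse-variance-weighted replicate averages.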

Variant | polymerase ribozyme fitness (log ratio)
A83C G93C | -0.701
C86A G120U | -0.761
A83G A90G | -0.465
C82U U87C G113A | -1.19
U87C C98A | -4.87
C82U A91U A100U | -3.25
C85U C86G | -1.13
U87A G113A | -1.76
U87A C124U | 1.04
C82G C98A A118U | -5.57
C86A A90G | 0.132
C86A A90U | -1.19
C82A U87A | -0.237
C85A G110A G127A | -3.71
A83U C115U C123G G135U | -1.98
A83G C86A G113A | -2.01
C82U C89U G113U G120A G128A | -5.47
A83U C98U U130C | -0.673
A84G C88U U116G C124A | -0.458
C86U G93U U106C C124U U126A | -2.34
C86U G110C | -3.72
A84U C115A U125G | -0.872
C86U U87A C101A U129G | -3.91
C86U C97U | -0.517

Variant | polymerase ribozyme fitness (log ratio)
A84C C85G G93A C101U | -2.22
C86G A100U | -0.874
C85U U112A G122U U126G | -4.47
A83U A91C G128A | -2.84
C82G A118U | 0.179
C82A G93C A111C | -0.977
C85A C104U | -1.07
U81C G127C | -1.22
C85U C88U | -0.176
C86G U112G | 0.00839
C85A C102U A121U C124U | -1.07
C86U A103C | -5.52
A84U C115A | -0.457
C82U U96A C101A G127A | -4.42
C85A A95U A100U | -3.28
U87C C114G | -2
A84G | -0.482
A84U | -0.405
A84C | -0.112
A83C U112G G113C G120U U130C | -7.33
C85U A90U U109G C124A | -6.07
C85G A119G | -0.0195
C85G G117C G128U | -7.06
C85U A91C A95G | -2.23

Variant | polymerase ribozyme fitness (log ratio)
C85G A90U G127C U133A | -4.53
C85G G110A U126C | -2.99
C86U U112A | 0.825
A84C U116C | 0.658
A84U U109G | -4.27
C86G C102G C115A U133A | -5.49
U87A A105U U116C | -3.54
C86U A90U | -1.08
C86A C114U A119U | -3.57
C82G C88U A103C G117C | -5.02
C85A G113C G122C U129C | -4.98
A83G C89A U106G | -4.3
A84U C101U G122A U132A | -1.15
C85A C99U | -4.7
A83U G120A U125A | 0.929
A83C A121G | 1.63
A84U G128A | -1.72
C86U G120A U130C G135U | -0.0631
U87A U129A | -0.873
U87A C89U G128A | -2.15
A84U U130C | 0.517
U87A C89U | 0.835
A84U U133G | -0.42
C86A G127C | -1.91

Variant | polymerase ribozyme fitness (log ratio)
U87A C114A | -2.58
U81G G93A U106A C123U | -3.83
A83C U92A C114A G128C | -6.64
C85G U130A G135U | -3.18
C85A C101G U109G G117C | -7.01
C82U U96G G122A | -1.25
C85G C97U | -2.99
A84U C97A | -5.72
C82A C123U | 0.707
A83U G107A | -5.83
C82A C97G | -5.53
C82G C99U | -3.61
C86U C94U C115A | -0.874
C86A A90C G135U | -2.98
C82G C123G U126C G128C | -2.13
A83C G107U G113A | -3.74
U87A C88U | -1.46
C86G C88A | -1.96
C86U A100C G110U U129C | -4.69
C82G G117C | -3.58
A83G C89A | -3.89
A83G G93A G120U | -1.68
C85G U130G | -2.71
U81G G120A | -3.83

Variant | polymerase ribozyme fitness (log ratio)
C85U G135U | -1.91
U87A G120U | 0.227
C85U U109A | -6.03
C82U G117U | -2.7
C86A U92A G93C G120A | -4.42
A84U U106G A118G | -1.83
C85A U116C | -2.08
C85U U87A C88A | -2.23
C86G C101A | -1.32
C86G G120A | -0.356
A83C C101G U109A G120A | -7.06
A84C C114G G127A | -4.73
C85G G113C | -3.51
C85G G113A | -2.15
C85G U132A | -1.6
U81G C124A G128C U130G | -2.26
U81C U106A | 0.0236
A83U U125A | -0.797
C86A A91U | -2.01
C85U C123G | 0.896
U87A U112A | 1.76
C86A C123U C124G | 0.744
C82G G128A | -2.22
U81G U130A | -3.23

Variant | polymerase ribozyme fitness (log ratio)
C82A U92A | -3.43
U81A G117U | -3.99
C85A C89A U106A C114A | -5.22
U81G A95U | -6.29
C85U U96C | -0.852
U87A C115U | -0.739
U87A C115A | 0.108
A83C C114A C123G C124G | -0.19
C82G G110U | -3.25
C86G C89A C114A | -4.58
A83U G120U U130C | -0.376
C85G G117C | -5.23
C85U G113A | -2.02
A83C G110U G117U | -5.17
C85U G120A | -0.267
U87A C88A U96C | -1.02
C86A C115A G128A U133A | -4.43
U81G C94G G117U | -6.8
A84U G127A | -0.952
A84U G117C C124G | -1.4
U81C C114A | -2.34
C85U C99U | -4.89
A83G C97U C115A G135C | -1.7
A84U U106A | -0.185

Variant | polymerase ribozyme fitness (log ratio)
C86U G113A G127C | -1.64
A84U U112G | 0.742
C82G C97A U112C C115G U133G | -6.38
C82G G93C U129G | -2.84
C86G A100U G128C | -3.41
C82U C89A | -1.21
A83C C88U | -0.561
U87C A103U | -3.8
A84G U129G | -1.32
C82G U109C | -5.03
A84G C88U | -0.134
C82A G110U C123U | -2.47
A84G A118G | -0.615
C82U C88G C124U | 0.172
A83C G113U | -3.09
U87C A105G | -1.78
U81C C97U C114A | -3.09
C86G G93C U132C | -2.42
C85A A100C | -2.71
A84C C124G | 1.9
A84C C124A | 1.76
C86U C114U | -1.7
U87A G122A | -0.168
